Laboratory results taken from US20180371086A1.

How the values were obtained:
Test in all cases: cell-based or functional assay
[1] = target: HIV-1 Env of clone REJO (HIV-1)
[2] = target: HIV-1 Env gp120 of virus WITO, on infected cells (HIV-1)
[3] = target: HIV-1 Env of isolate 8320 (HIV-1)
[4] = target: HIV-1 Env of isolate 8110 (HIV-1)
[5] = target: HIV-1 Env of isolate 8106 (HIV-1)
[6] = target: HIV-1 Env gp120 of virus CH058, on infected cells (HIV-1)
[7] = target: HIV-1 Env of clone CH058 (HIV-1)
[8] = target: HIV-1 Env of clone WITO (HIV-1)
[9] = target: HIV-1 Env of clone CH077 (HIV-1)
[10] = target: HIV-1 Env of isolate 8359 (HIV-1)
[11] = target: HIV-1 Env of clone CH106 (HIV-1)
[12] = target: HIV-1 Env of isolate 8176 (HIV-1)
[13] = target: HIV-1 Env of isolate 92US657 (HIV-1)
[14] = target: HIV-1 Env of isolate 92US712 (HIV-1)
[15] = target: HIV-1 Env of clone RHPA (HIV-1)
[16] = target: HIV-1 Env of isolate 8318 (HIV-1)
[17] = target: HIV-1 Env of isolate 8117 (HIV-1)
[18] = target: HIV-1 Env of strain BaL (HIV-1)
[19] = target: HIV-1 Env gp120 of virus 92US727, on infected cells (HIV-1)
[20] = target: HIV-1 Env of isolate 8134 (HIV-1)
[21] = target: HIV-1 Env of isolate 92US727 (HIV-1)

PGT-121.60 (antibody)
IC50 (neutralization, CEM.NKr.CCR5.LucR based assay) [1]: > 100 µg/mL | killing EC50; HIV-infected CD4 T cells (WITO); effector cells Eff Memory CD4 [2]: > 10 µg/mL | killing EC50; HIV-infected CD4 T cells (WITO); effector cells Memory CD4 [2]: > 10 µg/mL | killing EC50; HIV-infected CD4 T cells (WITO); effector cells Memory CD8 [2]: > 10 µg/mL | killing EC50; HIV-infected CD4 T cells (WITO); effector cells γ Δ CD4 [2]: 0.36 µg/mL | killing EC50; HIV-infected CEM-NKr-CCR5-LucR CD4 T cells; PBMC donor 4176; virus WITO [2]: > 100 µg/mL | killing EC50; HIV-infected CEM-NKr-CCR5-LucR CD4 T cells; PBMC donor 4288; virus WITO [2]: 0.767 µg/mL | killing Emax; HIV-infected CD4 T cells (WITO); effector cells Eff Memory CD4 [2]: 0% | killing Emax; HIV-infected CD4 T cells (WITO); effector cells Memory CD4 [2]: 9% | killing Emax; HIV-infected CD4 T cells (WITO); effector cells Memory CD8 [2]: 9% | killing Emax; HIV-infected CD4 T cells (WITO); effector cells γ Δ CD4 [2]: 18% | killing Emax; HIV-infected CEM-NKr-CCR5-LucR CD4 T cells; PBMC donor 4176; virus WITO [2]: 0% | killing Emax; HIV-infected CEM-NKr-CCR5-LucR CD4 T cells; PBMC donor 4288; virus WITO [2]: 46% | IC50 (neutralization, CEM.NKr.CCR5.LucR based assay) [3]: > 100 µg/mL | IC50 (neutralization, CEM.NKr.CCR5.LucR based assay) [4]: 0.514 µg/mL | IC50 (neutralization, CEM.NKr.CCR5.LucR based assay) [5]: 0.091 µg/mL | Maximum percent of HIV-infected cells killed; PBMC-derived effector cells; donor 1003277; virus CHO58 [6]: 66.2% | Maximum percent of HIV-infected cells killed; PBMC-derived effector cells; donor 1004344; virus CHO58 [6]: 82.8% | Maximum percent of HIV-infected cells killed; tonsil-derived effector cells; donor 1003277; virus CHO58 [6]: 10.9% | Maximum percent of HIV-infected cells killed; tonsil-derived effector cells; donor 1004344; virus CHO58 [6]: 0% | Potency (IC50) of killing HIV-infected cells; PBMC-derived effector cells; donor 1003277; virus CHO58 [6]: 0.706 µg/mL | Potency (IC50) of killing HIV-infected cells; PBMC-derived effector cells; donor 1004344; virus CHO58 [6]: 0.094 µg/mL | Potency (IC50) of killing HIV-infected cells; tonsil-derived effector cells; donor 1003277; virus CHO58 [6]: > 10 µg/mL | Potency (IC50) of killing HIV-infected cells; tonsil-derived effector cells; donor 1004344; virus CHO58 [6]: > 10 µg/mL | IC50 (neutralization, CEM.NKr.CCR5.LucR based assay) [7]: 0.063 µg/mL | IC50 (neutralization, CEM.NKr.CCR5.LucR based assay) [8]: 1.05 µg/mL | IC50 (neutralization, CEM.NKr.CCR5.LucR based assay) [9]: > 100 µg/mL | IC50 (neutralization, CEM.NKr.CCR5.LucR based assay) [10]: 0.337 µg/mL | IC50 (neutralization, CEM.NKr.CCR5.LucR based assay) [11]: > 100 µg/mL | IC50 (neutralization, CEM.NKr.CCR5.LucR based assay) [12]: 0.028 µg/mL | IC50 (neutralization, CEM.NKr.CCR5.LucR based assay) [13]: 0.168 µg/mL | IC50 (neutralization, CEM.NKr.CCR5.LucR based assay) [14]: 0.019 µg/mL | IC50 (neutralization, CEM.NKr.CCR5.LucR based assay) [15]: 0.534 µg/mL | IC50 (neutralization, CEM.NKr.CCR5.LucR based assay) [16]: 0.048 µg/mL | IC50 (neutralization, CEM.NKr.CCR5.LucR based assay) [17]: > 100 µg/mL | IC50 (neutralization, CEM.NKr.CCR5.LucR based assay) [18]: 0.015 µg/mL | Maximum percent of HIV-infected cells killed; PBMC-derived effector cells; donor 1004344; virus 92US727 [19]: 63.7% | Maximum percent of HIV-infected cells killed; tonsil-derived effector cells; donor 1004344; virus 92US727 [19]: 0% | Potency (IC50) of killing HIV-infected cells; PBMC-derived effector cells; donor 1004344; virus 92US727 [19]: 0.014 µg/mL | Potency (IC50) of killing HIV-infected cells; tonsil-derived effector cells; donor 1004344; virus 92US727 [19]: > 10 µg/mL | IC50 (neutralization, CEM.NKr.CCR5.LucR based assay) [20]: 0.062 µg/mL | IC50 (neutralization, CEM.NKr.CCR5.LucR based assay) [21]: 0.013 µg/mL
